Data taken from patent US20190309079A1 (Regeneron, published 2019).

B1: H4H18446P2 (antibody, human IgG4, V domains shown)
VH: EVQLVESGGGLVQPGGSLRLSCAASGFTFSNYGMTWVRQAPGKGLEWVSAITGGGGSTYYSNSVKGRFTISRDNSKNTVYLRMNSVRAEDTAVYYCAKYKWNFVDDWGQGTTVTVSS
VL: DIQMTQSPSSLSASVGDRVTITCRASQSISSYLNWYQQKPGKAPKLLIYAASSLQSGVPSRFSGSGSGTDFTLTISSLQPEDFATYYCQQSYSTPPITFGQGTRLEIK
notes: human IgG4 Fc
B2: H4H16650P2 (antibody, V domains shown)
VH: QVQLVESGGGVVQPGKSLRLSCVASGFTFSSDAMYWVRQAPGKGLEWVAVIYYDGNYQYYEDSVKGRFTISRDNSQNTLDLQMNSLRVDDTAVYFCARLNWDYWYLDLWGRGTLVTVSS
VL: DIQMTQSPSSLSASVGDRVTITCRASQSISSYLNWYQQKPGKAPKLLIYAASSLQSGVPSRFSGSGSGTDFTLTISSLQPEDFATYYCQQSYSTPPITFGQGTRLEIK
B3: H4H18417P2 (antibody, V domains shown)
VH: QVQLVESGGGVVQPGRSLRLSCAASGFTFSTYGMHWVRQAPGKGLEWVSVISYDESNKYYADSVKGRFTISRDNSKNALYLQMNSLRNEDTAVYYCARDRPFGLVTGWFDPWGQGTLVTVSS
VL: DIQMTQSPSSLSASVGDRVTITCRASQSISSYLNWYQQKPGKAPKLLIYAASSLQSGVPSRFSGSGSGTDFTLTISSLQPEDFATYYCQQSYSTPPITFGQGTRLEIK
B4: H4H18445P2 (antibody, human IgG4, V domains shown)
VH: QVQLQESGPGLVKPSQTLSLTCTVSGGSISSGGDYWSWIRQLPGKGLEWIGYIYYSGSAYYNPSLKSRGTISIDTSKNQFSLKLTSVTAADTAVYFCVKLRFLEWFLGGWFGPWGQGTLVTVSS
VL: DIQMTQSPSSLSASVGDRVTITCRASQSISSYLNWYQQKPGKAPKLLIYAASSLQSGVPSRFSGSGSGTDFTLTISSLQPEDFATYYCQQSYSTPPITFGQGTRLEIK
notes: human IgG4 Fc
B5: H4H16679P2 (antibody, V domains shown)
VH: QVQLVESGGGVVQPGRSLRLSCTASGFTFSSYAMYWVRQAPGKGLEWVSVIYYDGSYKYYADSVKGRFTISRDNSKNTLYLQMDSLRAEDTAVYYCASYNWNYWYFDFWGRGTLVTVSS
VL: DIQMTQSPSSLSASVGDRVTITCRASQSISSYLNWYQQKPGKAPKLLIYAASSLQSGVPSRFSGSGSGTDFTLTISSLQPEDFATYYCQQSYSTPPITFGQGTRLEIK
B6: H4H17321P2 (antibody, V domains shown)
VH: QVQLVESGGGVVQPGRSLRLSCEASGFSSSDNAMYWVRQAPGKGLEWVSVIYHDGSYKYYEDSVKGRFTIARDNSKNTLYLQMNSLRAEDTAVYYCARYNWNHWYFDVWGRGTLVTVSS
VL: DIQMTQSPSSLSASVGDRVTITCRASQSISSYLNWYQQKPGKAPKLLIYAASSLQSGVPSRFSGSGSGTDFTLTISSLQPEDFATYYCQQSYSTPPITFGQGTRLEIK
B7: H4H18449P2 (antibody, human IgG4, V domains shown)
VH: EVQLVESGGGLVQPGGSLRLSCVASGFTFNKYDMHWVRQTTGKGLEWVSGIDTDGDTYYPGSVKGRFTISRENAENSLYLQMNGLRVGDTAVYYCARWPWSGFYGAFDIWGQGTMVTVSS
VL: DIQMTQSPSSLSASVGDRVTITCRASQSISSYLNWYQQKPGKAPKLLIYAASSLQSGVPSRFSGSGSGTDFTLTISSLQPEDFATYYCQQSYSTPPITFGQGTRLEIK
notes: human IgG4 Fc
B8: H4H17319P2 (antibody, V domains shown)
VH: QVQLVESGGSVVQPGRSLRLSCAASGFTFSTYAMYWVRQTPGKGLEWVAVLYSDGSNKYYIDSVKGRFTISRDTSTNTLYLQMSSLRADDSALYYCARLNWDYWYFDLWGRGTLVTVSS
VL: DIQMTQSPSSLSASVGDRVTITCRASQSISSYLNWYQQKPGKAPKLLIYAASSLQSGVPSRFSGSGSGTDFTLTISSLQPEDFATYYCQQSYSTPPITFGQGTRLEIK
notes: also called REGN4461
B9: H4H18438P2 (antibody, V domains shown)
VH: QVQLVESGGGVVQPGRSLRLSCAASGFSFNTYGMHWVRQAPGKGLEWVTIIWYDGSIKYYADSVKGRFTISRDNSKNTLYLQMNSLRAEDTAVYYCARGGYSGYLYFDYWGQGTLVTVSS
VL: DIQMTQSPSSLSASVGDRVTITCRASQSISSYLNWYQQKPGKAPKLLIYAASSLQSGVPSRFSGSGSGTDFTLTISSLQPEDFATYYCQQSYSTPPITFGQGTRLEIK

Assays:
human LEPR Ig (D3)-MMH = molecular target: T1, human LEPR Ig (D3)-MMH (human, UniProt P48357 340-427, limits assumed); assay: Luminex, myc-captured protein on beads
T1 construct: domain: Ig (D3)
T1 sequence (looked up): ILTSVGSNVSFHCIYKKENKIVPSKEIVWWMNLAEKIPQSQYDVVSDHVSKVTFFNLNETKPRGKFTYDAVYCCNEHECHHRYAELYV
Procedure: (§1) Aliquots of microspheres with immobilized anti-myc monoclonal antibodies, prepared as described above, were added individually to 1 mL of the each of these protein supernatants. The microspheres were gently mixed, incubated for two hours at 25° C., washed twice with 1 mL of DBPS, centrifuged to remove the supernatant and finally resuspended in 1 mL of DPBS buffer. […] of anti-myc IgG coupled microspheres from individual reactions with full length human LEPR and with each of the human LEPR domain proteins were withdrawn and mixed together in 3.6 mL of PBS+20 mg/mL BSA+0.05% sodium azide (blocking buffer).
(§2) From this mixed pool, 75 μL of microspheres were plated per well on a 96 well filter plate (Millipore, Cat. No: MSBVN1250) and mixed with 25 μL of individual anti-human LEPR monoclonal antibodies (0.5 or 5 μg/mL), incubated for two hours at 25° C. and then washed twice with 200 μL of DPBS with 0.05% Tween 20 (washing buffer). […] After 30 minutes, the samples were washed twice with 200 µL of washing buffer and resuspended in 150 μL of wash buffer. The Median Fluorescence intensity (MFI) of the microspheres was measured in a Luminex Analyzer.

human LEPR CRH1 (D1)-MMH = molecular target: T2, human LEPR CRH1 (D1)-MMH (human, UniProt P48357 22-229, limits assumed); assay: Luminex, myc-captured protein on beads
T2 construct: domain: CRH1 (D1)
T2 sequence (looked up): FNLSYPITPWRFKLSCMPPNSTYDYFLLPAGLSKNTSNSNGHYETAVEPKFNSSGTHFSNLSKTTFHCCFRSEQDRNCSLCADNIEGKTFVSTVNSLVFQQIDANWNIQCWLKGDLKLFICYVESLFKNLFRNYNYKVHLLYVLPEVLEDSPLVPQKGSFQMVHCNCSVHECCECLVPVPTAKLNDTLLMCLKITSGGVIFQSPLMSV
Procedure: as §1, §2

[1] = molecular target: T3, human LEPR CRH1-Ig (D2,D3)-MMH (human, UniProt P48357 230-427, limits assumed); assay: Luminex, myc-captured protein on beads
T3 construct: domain: CRH1-Ig (D2,D3)
T3 sequence (looked up): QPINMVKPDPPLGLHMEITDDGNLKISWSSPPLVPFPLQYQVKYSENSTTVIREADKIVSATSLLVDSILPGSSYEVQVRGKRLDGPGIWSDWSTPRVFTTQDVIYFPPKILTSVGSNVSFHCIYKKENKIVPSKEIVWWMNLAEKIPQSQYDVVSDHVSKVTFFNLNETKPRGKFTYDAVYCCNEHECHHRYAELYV
Procedure: as §1, §2

[2] = molecular target: T4, extracellular domain of human LEPR (amino acids 22-839 of P48357, Isoform B) with N-terminal myc-myc tag, … (human, UniProt P48357 22-839, GPI anchor at the C-terminus); assay: FACS, 10 nM Ab, HEK293/hLEPR-GPI, no added Leptin
T4 construct: also called HEK293/Mycx2-hLepR(Ecto)-GPI anchored cells
T4 sequence: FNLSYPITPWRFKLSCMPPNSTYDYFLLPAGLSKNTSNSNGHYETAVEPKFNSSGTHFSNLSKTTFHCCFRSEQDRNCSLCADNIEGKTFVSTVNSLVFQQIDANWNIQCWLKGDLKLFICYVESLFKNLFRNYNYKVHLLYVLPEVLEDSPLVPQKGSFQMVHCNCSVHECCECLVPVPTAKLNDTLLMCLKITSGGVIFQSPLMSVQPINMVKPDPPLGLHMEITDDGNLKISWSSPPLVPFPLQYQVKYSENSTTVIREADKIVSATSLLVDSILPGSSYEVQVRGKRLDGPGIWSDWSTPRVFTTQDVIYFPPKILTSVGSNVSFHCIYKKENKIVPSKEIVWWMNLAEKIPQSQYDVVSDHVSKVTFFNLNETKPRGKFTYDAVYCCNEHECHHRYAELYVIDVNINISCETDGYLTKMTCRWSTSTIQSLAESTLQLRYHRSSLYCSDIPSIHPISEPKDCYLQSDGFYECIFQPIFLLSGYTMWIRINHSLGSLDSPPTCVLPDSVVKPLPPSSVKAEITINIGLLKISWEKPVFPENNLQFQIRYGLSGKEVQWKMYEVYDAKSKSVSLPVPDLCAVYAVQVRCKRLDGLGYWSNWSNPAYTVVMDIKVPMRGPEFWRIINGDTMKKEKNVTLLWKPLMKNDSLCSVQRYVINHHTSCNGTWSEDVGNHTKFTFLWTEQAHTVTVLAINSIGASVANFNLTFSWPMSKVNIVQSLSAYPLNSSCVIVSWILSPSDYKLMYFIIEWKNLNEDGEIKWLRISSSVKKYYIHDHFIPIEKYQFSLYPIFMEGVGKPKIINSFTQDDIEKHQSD
Procedure: (§3) For the FACS analysis, HEK293 parental cells and HEK293/hLEPR-GPI cells were dissociated and plated onto 96-well v-bottom plates at 5×10⁵ cells/well in PBS containing 2% FBS (FACS buffer). […] Cells were subsequently fixed using BD CytoFix™ (Becton Dickinson, #554655), filtered, and analyzed on a HyperCyt Flow Cytometer (Beckman Coulter). Unstained and secondary antibody alone controls were also tested for all cell lines. The results were analyzed using ForeCyt (IntelliCyt) and FlowJo version 10 software to determine the geometric means of fluorescence for viable cells. The geometric mean of fluorescence for each sample was then normalized to the geometric mean of unstained cells to obtain relative binding per condition referred to as “binding ratios”, and these binding ratios were recorded for each antibody tested.

[3] = molecular target: T4, extracellular domain of human LEPR …; assay: FACS, 10 nM Ab, HEK293/hLEPR-GPI, 1 uM Leptin
Procedure: as §3

Binder | Luminex MFI (human LEPR Ig (D3)-MMH) | Luminex MFI (human LEPR CRH1 (D1)-MMH) | Luminex MFI [1] | Binding Ratio (normalized to unstained) [2] | Binding Ratio (normalized to unstained) [3]
B1 | 25 MFI | 17 MFI | – | – | –
B2 | 10 MFI | 8 MFI | 74 MFI | 2420 fold | 3120 fold
B3 | 17 MFI | 10 MFI | 5500 MFI | 1840 fold | 2600 fold
B4 | 19 MFI | 12 MFI | 40 MFI | 2020 fold | 2490 fold
B5 | 14 MFI | 12 MFI | 34 MFI | 2060 fold | 2220 fold
B6 | 7 MFI | 9 MFI | 15 MFI | – | –
B7 | 24 MFI | 20 MFI | 42 MFI | 3370 fold | 3110 fold
B8 | 8 MFI | 8 MFI | 14 MFI | – | –
B9 | 30 MFI | 13 MFI | 8880 MFI | 1490 fold | 2410 fold
